Test results taken from publication PMC8205236, “Quantitative Profiling of WNT-3A Binding to All Human Frizzled Paralogues in HEK293 Cells by NanoBiT/BRET Assessments” (ACS Pharmacology & Translational Science, 2021).

T1: HiBiT-tagged human FZD4 (human, UniProt Q9ULV1 37-537)
T1 construct: the receptor's own signal peptide is probably replaced; also called HiBiT-FZD4; WT FZD4; source: HEK293A, transiently transfected, on live cells; not shown: HiBiT, N-terminal, kept
T1 sequence (looked up): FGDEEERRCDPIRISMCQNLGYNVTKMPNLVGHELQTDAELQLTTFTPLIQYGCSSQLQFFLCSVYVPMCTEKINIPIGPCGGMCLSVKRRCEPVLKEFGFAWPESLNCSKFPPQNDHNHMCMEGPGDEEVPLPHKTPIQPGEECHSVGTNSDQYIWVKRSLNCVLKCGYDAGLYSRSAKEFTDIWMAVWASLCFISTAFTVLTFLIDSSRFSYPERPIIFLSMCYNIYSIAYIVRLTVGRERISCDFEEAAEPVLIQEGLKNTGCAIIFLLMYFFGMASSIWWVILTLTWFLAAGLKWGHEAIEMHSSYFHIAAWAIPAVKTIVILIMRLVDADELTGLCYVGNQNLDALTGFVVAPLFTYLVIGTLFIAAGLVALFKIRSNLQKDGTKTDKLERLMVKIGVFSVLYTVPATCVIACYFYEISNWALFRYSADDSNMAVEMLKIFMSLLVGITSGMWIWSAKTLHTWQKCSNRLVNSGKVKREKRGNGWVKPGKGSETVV


Key:
[1] = biological target: T1, HiBiT-tagged human FZD4; assay: FRET or BRET; NanoBiT/BRET competition binding on live HEK293A cells with HiBiT-FZD4: 30 min preincubation with purified untagged WNT at 37 °C, then eGFP-WNT-3A to 0.4 nM for 240 min, then LgBiT and furimazine; pKi by Cheng-Prusoff; settings: one partner purified
[2] = biological target: T2, eGFP-tagged mouse WNT-3A (mouse, UniProt P27467 19-352); assay: FRET or BRET; NanoBiT/BRET saturation binding on live HEK293A cells (setup 1): eGFP-WNT-3A conditioned medium 16.7 pM to 16.7 nM, 5% FBS, 10 mM HEPES, 240 min at 37 °C, then LgBiT and furimazine for 10 min; one-site specific model (normalised logarithmic fits for pKd); settings: partners not purified
T2 construct: WNT-3A, mouse, eGFP-tagged, secreted into conditioned medium; Co-expressed with His-Afamin, which may accompany the WNT in the medium; Two batches (16.7 nM and 16.2 nM); also called eGFP-WNT-3A; eGFP-Wnt-3A; source: HEK293F suspension cells, cotransfected with pCS2+-eGFP-WNT-3A and pCMV-His-Afamin; conditioned medium, concentrated 5-fold and medium-exchanged (not purified)

| Binder | 0.4 nM eGFP-WNT-3A binding displaced (%) [1] [%] | pKi [1] | ΔBRET [1] | Kd [2] [nM] |
| --- | --- | --- | --- | --- |
| untagged human WNT-5B (ligand, UniProt Q9H1J7 18-359, looked up, WNT-5B, human, untagged recombinant protein; source: bought: RnD Systems/Biotechne, purified) QLLTDANSWWSLALNPVQRPEMFIIGAQPVCSQLPGLSPGQRKLCQLYQEHMAYIGEGAKTGIKECQHQFRQRRWNCSTADNASVFGRVMQIGSRETAFTHAVSAAGVVNAISRACREGELSTCGCSRTARPKDLPRDWLWGGCGDNVEYGYRFAKEFVDAREREKNFAKGSEEQGRVLMNLQNNEAGRRAVYKMADVACKCHGVSGSCSLKTCWLQLAEFRKVGDRLKEKYDSAAAMRVTRKGRLELVNSRFTQPTPEDLVYVDPSPDYCLRNESTGSLGTQGRLCNKTSEGMDGCELMCCGRGYNQFKSVQVERCHCKFHWCCFVRCKKCTEIVDQYICK | 78.3 | 6.93 | -0.004 |  |
| FZD4-CD86 chimeric protein (HiBiT-tagged) (receptor) FGDEEERRCDPIRISMCQNLGYNVTKMPNLVGHELQTDAELQLTTFTPLIQYGCSSQLQFFLCSVYVPMCTEKINIPIGPCGGMCLSVKRRCEPVLKEFGFAWPESLNCSKFPPQNDHNHMCMEGPGDEEVPLPHKTPIQPGEECHSVGTNSDQYIWVKRSLNCVLKCGYDAGLYS |  |  |  | 142 |
| FZD4-FZD6 chimeric protein (receptor) FGDEEERRCDPIRISMCQNLGYNVTKMPNLVGHELQTDAELQLTTFTPLIQYGCSSQLQFFLCSVYVPMCTEKINIPIGPCGGMCLSVKRRCEPVLKEFGFAWPESLNCSKFPPQNDHNHMCMEGPGDEEVPLPHKTPIQPGEECHSVGTNSDQYIWVKRSLNCVLKCGYDAGLYSIGTVSIFCLCATLFTFLTFLIDVRRFRYPERPIIYYSVCYSIVSLMYFIGFLLGDSTACNKADEKLELGDTVVLGSQNKACTVLFMLLYFFTMAGTVWWVILTITWFLAAGRKWSCEAIEQKAVWFHAVAWGTPGFLTVMLLAMNKVEGDNISGVCFVGLYDLDASRYFVLLPLCLCVFVGLSLLLAGIISLNHVRQVIQHDGRNQEKLKKFMIRIGVFSGLYLVPLVTLLGCYVYEQVNRITWEITWVSDHCRQYHIPCPYQAKAKARPELALFMIKYLMTLIVGISAVFWVGSKKTCTEWAGFFKRNRKRDPISESRRVLQESCEFFLKHNSKVKHKKKHYKPSSHKLKVISKSMGTSTGATANHGTSAVAITSHDYLGQETLTEIQTSPETSMREVKADGASTPRLREQDCGEPASPAASISRLSGEQVDGKGQAGSVSESARSEGRISPKSDITDTGLAQSNNLQVPSSSEPSSLKGSTSLLVHPVSGVRKEQGGGCHSDT |  |  |  | 3.5 |
| untagged human WNT-3A (ligand, UniProt P56704 19-352, looked up, WNT-3A, human, untagged recombinant protein; source: bought: RnD Systems/Biotechne, purified) SYPIWWSLAVGPQYSSLGSQPILCASIPGLVPKQLRFCRNYVEIMPSVAEGIKIGIQECQHQFRGRRWNCTTVHDSLAIFGPVLDKATRESAFVHAIASAGVAFAVTRSCAEGTAAICGCSSRHQGSPGKGWKWGGCSEDIEFGGMVSREFADARENRPDARSAMNRHNNEAGRQAIASHMHLKCKCHGLSGSCEVKTCWWSQPDFRAIGDFLKDKYDSASEMVVEKHRESRGWVETLRPRYTYFKVPTERDLVYYEASPNFCEPNPETGSFGTRDRTCNVSSHGIDGCDLLCCGRGHNARAERRREKCRCVFHWCCYVSCQECTRVYDVHTCK | 40.8 | 7.26 | -0.002 |  |
| FZD6-FZD4 chimeric protein (receptor) HSLFTCEPITVPRCMKMAYNMTFFPNLMGHYDQSIAAVEMEHFLPLANLECSPNIETFLCKAFVPTCIEQIHVVPPCRKLCEKVYSDCKKLIDTFGIRWPEELECDRLQYCDETVPVTFDPHTEFLGPQKKTEQVQRDIGFWCPRHLKTSGGQGYKFLGIDQCAPPCPNMYFKSDELEFAKSFMAVWASLCFISTAFTVLTFLIDSSRFSYPERPIIFLSMCYNIYSIAYIVRLTVGRERISCDFEEAAEPVLIQEGLKNTGCAIIFLLMYFFGMASSIWWVILTLTWFLAAGLKWGHEAIEMHSSYFHIAAWAIPAVKTIVILIMRLVDADELTGLCYVGNQNLDALTGFVVAPLFTYLVIGTLFIAAGLVALFKIRSNLQKDGTKTDKLERLMVKIGVFSVLYTVPATCVIACYFYEISNWALFRYSADDSNMAVEMLKIFMSLLVGITSGMWIWSAKTLHTWQKCSNRLVNSGKVKREKRGNGWVKPGKGSETVV |  |  |  | 5.8 |
| FZD8-CD86 chimeric protein (HiBiT-tagged) (receptor) ASAKELACQEITVPLCKGIGYNYTYMPNQFNHDTQDEAGLEVHQFWPLVEIQCSPDLKFFLCSMYTPICLEDYKKPLPPCRSVCERAKAGCAPLMRQYGFAWPDRMRCDRLPEQGNPDTLCMDYNRTDLTTAAPSPPRRLPPPPPGEQPPSGSGHGRPPGARPPHRGGGRGGGGGDAAAPPARGGGGGGKARPPGGGAAPCEPGCQCRAPMVSVSSERHPLYNRVKTGQIANCALPCHNPFFSQDERA |  |  |  | 22.9 |
| FZD4-FZD8 chimeric protein (receptor) FGDEEERRCDPIRISMCQNLGYNVTKMPNLVGHELQTDAELQLTTFTPLIQYGCSSQLQFFLCSVYVPMCTEKINIPIGPCGGMCLSVKRRCEPVLKEFGFAWPESLNCSKFPPQNDHNHMCMEGPGDEEVPLPHKTPIQPGEECHSVGTNSDQYIWVKRSLNCVLKCGYDAGLYSFTVFWIGLWSVLCFVSTFATVSTFLIDMERFKYPERPIIFLSACYLFVSVGYLVRLVAGHEKVACSGGAPGAGGAGGAGGAAAGAGAAGAGAGGPGGRGEYEELGAVEQHVRYETTGPALCTVVFLLVYFFGMASSIWWVILSLTWFLAAGMKWGNEAIAGYSQYFHLAAWLVPSVKSIAVLALSSVDGDPVAGICYVGNQSLDNLRGFVLAPLVIYLFIGTMFLLAGFVSLFRIRSVIKQQDGPTKTHKLEKLMIRLGLFTVLYTVPAAVVVACLFYEQHNRPRWEATHNCPCLRDLQPDQARRPDYAVFMLKYFMCLVVGITSGVWVWSGKTLESWRSLCTRCCWASKGAAVGGGAGATAAGGGGGPGGGGGGGPGGGGGPGGGGGSLYSDVSTGLTWRSGTASSVSYPKQMPLSQV |  |  |  | 2.9 |

Next, values leading:

| 0.4 nM eGFP-WNT-3A binding displaced (%) [1] [%] | pKi [1] | ΔBRET [1] | Kd [2] [nM] | Binder |
| --- | --- | --- | --- | --- |
| 34.5 | 7.87 | -0.001 |  | untagged human WNT-10B (ligand, WNT-10B, human, untagged recombinant protein; source: bought: RnD Systems/Biotechne, purified) not shown |
| 58.4 | 8.9 | -0.001 |  | untagged human WNT-11 (ligand, UniProt O96014 25-354, looked up, WNT-11, human, untagged recombinant protein; source: bought: RnD Systems/Biotechne, purified) IKWLALSKTPSALALNQTQHCKQLEGLVSAQVQLCRSNLELMHTVVHAAREVMKACRRAFADMRWNCSSIELAPNYLLDLERGTRESAFVYALSAAAISHAIARACTSGDLPGCSCGPVPGEPPGPGNRWGGCADNLSYGLLMGAKFSDAPMKVKKTGSQANKLMRLHNSEVGRQALRASLEMKCKCHGVSGSCSIRTCWKGLQELQDVAADLKTRYLSATKVVHRPMGTRKHLVPKDLDIRPVKDSELVYLQSSPDFCMKNEKVGSHGTQDRQCNKTSNGSDSCDLMCCGRGYNPYTDRVVERCHCKYHWCCYVTCRRCERTVERYVCK |
| 78.4 | 7.08 | -0.004 |  | untagged human/mouse WNT-5A (ligand, UniProt P41221 62-380, looked up, WNT-5A, printed as human/mouse, untagged recombinant protein; human WNT-5A is P41221; source: bought: RnD Systems/Biotechne, purified) IIGAQPLCSQLAGLSQGQKKLCHLYQDHMQYIGEGAKTGIKECQYQFRHRRWNCSTVDNTSVFGRVMQIGSRETAFTYAVSAAGVVNAMSRACREGELSTCGCSRAARPKDLPRDWLWGGCGDNIDYGYRFAKEFVDARERERIHAKGSYESARILMNLHNNEAGRRTVYNLADVACKCHGVSGSCSLKTCWLQLADFRKVGDALKEKYDSAAAMRLNSRGKLVQVNSRFNSPTTQDLVYIDPSPDYCVRNESTGSLGTQGRLCNKTSEGMDGCELMCCGRGYDQFKTVQTERCHCKFHWCCYVKCKKCTEIVDQFVCK |
